From US20250002577A1 (ONCORESPONSE, published 2025) come the findings set out here.

The target of experiment [1] is T1, human LILRB2 on cells (human, UniProt Q8N423 22-597).
T1 construct: whole, on cells; also called hLILRB2; LILRB2-HEK293T
The experiment is described as follows: flow cytometry, HEK293-6E transfectants. How it is done:
(§1) To determine that the parent chimera anti LILRB2/1 antibody specifically binds to LILRB2 and LILRB1 and not to other LILRB and LILRA family members, a cross-reactivity assay was performed. Cross-reactivity was assessed by antibody binding to transiently transfected HEK293-6E cells by flow cytometry. Binding was evaluated to HEK293-6E cells transiently transfected with human LILRB-1, -2, -3, -4, and 5 plasmids (Origene, Nos. RC219949, RC217935, RC211228, RC220932, RC206516) or to cells transiently transfected with human LILRA-1, -2, -4, -5, and -6 plasmids (Origene, Nos. RC210808, RC205626, RC220452, RC212310 RC212965). […] At a concentration of 1 μg/mL, no binding of B21A1 or the humanized variants to LILRB-3, -4, or -5 was observed (Table 7). Additionally, no binding to LILRA-1, -2, -4, -5, or -6 was observed, confirming the specificity of B21A1 and its humanized variants to LILRB1 and LILRB2 (Table 8).

Experiment [2] deals with T2, human LILRA6 on HEK293-6E cells (human, UniProt Q6PI73 24-481).
T2 construct: whole, on cells; also called hLILRA6
The experiment is described as follows: flow cytometry, HEK293-6E transfectants. How it is done:
as §1
In general terms: A flow cytometer gives signals particle by particle.

Experiment [3] has as its target T3, human LILRB5 on HEK293-6E cells (human, UniProt O75023 24-590).
T3 construct: whole, on cells; also called hLILRB5
Description: flow cytometry, HEK293-6E transfectants. How it is done:
as §1

Experiment [4] deals with T4, human LILRA4 on HEK293-6E cells (human, UniProt P59901 24-499).
T4 construct: whole, on cells; also called hLILRA4
Description: flow cytometry, HEK293-6E transfectants. How it is done: as §1

The target in experiment [5] is T5, human LILRB3 on HEK293-6E cells (human, UniProt O75022 24-631).
T5 construct: whole, on cells; also called hLILRB3
The experiment is described as follows: flow cytometry, HEK293-6E transfectants. How it is done:
as §1

For experiment [6], the target named is T6, human LILRA5 on HEK293-6E cells (human, UniProt A6NI73 42-299).
T6 construct: whole, on cells; also called hLILRA5
The experiment is described as follows: flow cytometry, HEK293-6E transfectants. How it is done:
as §1

Experiment [7] concerns the target T7, human LILRB4 on HEK293-6E cells (human, UniProt Q8NHJ6 22-448).
T7 construct: whole, on cells; also called hLILRB4
The experiment is described as follows: flow cytometry, HEK293-6E transfectants. How it is done:
as §1

The target of experiment [8] is T8, human LILRA1 on HEK293-6E cells (human, UniProt O75019 17-489).
T8 construct: whole, on cells; also called hLILRA1
Description: flow cytometry, HEK293-6E transfectants. How it is done: as §1

Experiment [9] deals with T9, human LILRA2 on HEK293-6E cells (human, UniProt Q8N149 24-483).
T9 construct: whole, on cells; also called hLILRA2
Description: flow cytometry, HEK293-6E transfectants. How it is done:
as §1

For experiment [10], the target named is T10, human LILRB1 on cells (human, UniProt Q8NHL6 24-650).
T10 construct: whole, on cells; also called hLILRB1; LILRB1-expressing 721.221 cells
Description: flow cytometry, HEK293-6E transfectants. On the procedure: as §1

Experiment [11] deals with T11, recombinant human LILRB1-His (human, UniProt Q8NHL6 24-458).
T11 construct: Bought protein; also called LILRB1 protein
Description: MSD ELISA, coated antigen, purified IgG1. On the procedure:
(§2) Recombinant human and cynomolgus LILRB1 proteins (R&D Systems, No. 8989-T2-050; ACROBiosystems, No. CDJ-C52H3) and recombinant human and cynomolgus LILRB2 proteins (ACROBiosystems, No. LI2-H5220; No. L12-C52H3) were diluted in PBS to 4 μg/mL and added to a multi-array 384-well high-binding plates (MSD, No. L21XA4) at 10 μL/well and incubated at 4° C. overnight. The plates were washed several times with Wash Buffer (0.05% Tween® 20 in PBS), using a microplate washer and then blocked with 70 μL/well of 5% BSA in PBS for 1 hour (h) at room temperature (RT) with shaking at 700 rpm. After blocking, 20 μL/well of anti-LILRB2/LILRB1 antibodies or isotype control were added to the plates, and the plates were sealed and incubated for 2 h at RT with shaking at 700 rpm. After primary antibody binding, plates were washed five times with 70 μL/well of Wash Buffer (0.05% Tween® 20 in PBS) using a microplate washer. Secondary detection antibody (SULFO-TAG™-labeled goat anti-human IgG antibody (MSD, No. R32AJ-1)) was diluted to 4 μg/mL in assay diluent (1% BSA in PBS) and 10 μL/well was added to plates and incubated at RT protected from light for 1 h, with shaking at 700 rpm. Following incubation, plates were washed five times with Wash Buffer, using a microplate washer. After removal of the final wash, 35 μL/well of MSD Gold Read Buffer B (MSD, No. R60AM-4) was added to all wells using a Multidrop combo washer/dispenser, and plates were read using MESO Sector 600MM instrument (MSD) within 5 minutes (min) after addition of Read Buffer. Signals as counts per minute (cpm) were recorded. EC₅₀ values were calculated using GraphPad Prism based on log concentration of the primary antibodies versus cpm values.
On the technique in general: ELISA stands for enzyme-linked immunosorbent assay.

The target in experiment [12] is T12, recombinant human LILRB2-His (human, UniProt Q8N423 22-461, limits assumed).
T12 construct: Bought protein; also called LILRB2 protein
The experiment is described as follows: MSD ELISA, coated antigen, purified IgG1. On the procedure:
as §2

Experiment [13] addresses T10, human LILRB1 on cells. The experiment is described as follows: flow cytometry, 721.221 cells, AF647-labelled antibody. How it is done: (§3) While LILRB2 expression is mostly restricted to myeloid cells, LILRB1 has a broader expression on immune cell subsets, including B cells, T cells and NK cells.
(§4) Frozen cells were removed from storage in vapor phase liquid nitrogen and thawed by gentle swirling in a water bath at 37° C., then resuspended in DMEM media with 10% FBS. Cells were placed in a 15 mL conical tube and centrifuged at 300×g for 5 min, then supernatant was removed. Cells were resuspended in DMEM+10% FBS at a cell density of 2×10⁵ cells/mL in a T75 flask for culturing, and incubated at 37° C., 5% CO₂ for 3 days before passaging. Cells were passaged when the cell density reached 1×10⁶ cell/mL. On the day of the assay, cells were centrifuged, then supernatant was removed. Cells were resuspended in Blocking Buffer B (FACS Buffer containing 10% FBS and 0.5 mg/mL human IgG1 (Athens Research, No. 16-16-090707-1M)+0.05% NaN₃, 5% (w/v)) in a 15 mL conical tube, then incubated at 4° C. for 30 min. […] Cells were incubated with antibodies at 4° C. for 1 h. Cells were washed twice in FACS Buffer (PBS containing 2 mM EDTA+1% FBS+0.05% NaN₃) and then stained with for 10 min with Zombie Violet™ fixable viability dye (BioLegend, No. 423114) at RT, washed with FACS Buffer and resuspend in 75 μL of FACS Buffer for acquisition on a BD FACSymphony™ or BD FACSCanto™ II flow cytometer (BD Biosciences), as described in Example 6.

For experiment [14], the target named is T1, human LILRB2 on cells. Description: flow cytometry, LILRB2-HEK293T cells, AF647-labelled antibody. On the procedure: as §3, §4

T4 sequence (P59901 24-499): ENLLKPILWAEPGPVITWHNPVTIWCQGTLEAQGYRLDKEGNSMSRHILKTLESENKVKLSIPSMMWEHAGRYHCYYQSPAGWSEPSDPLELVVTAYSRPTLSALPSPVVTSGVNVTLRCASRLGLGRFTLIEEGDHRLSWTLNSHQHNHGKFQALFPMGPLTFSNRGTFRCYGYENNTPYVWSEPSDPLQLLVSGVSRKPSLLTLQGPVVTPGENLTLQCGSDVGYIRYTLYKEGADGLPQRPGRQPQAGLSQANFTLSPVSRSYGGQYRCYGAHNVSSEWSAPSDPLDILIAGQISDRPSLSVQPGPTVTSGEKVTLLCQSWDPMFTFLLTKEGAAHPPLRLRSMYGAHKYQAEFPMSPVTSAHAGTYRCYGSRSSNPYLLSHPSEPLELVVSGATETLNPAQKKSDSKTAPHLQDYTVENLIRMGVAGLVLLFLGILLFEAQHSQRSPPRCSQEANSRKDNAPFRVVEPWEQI
T8 sequence (O75019 17-489): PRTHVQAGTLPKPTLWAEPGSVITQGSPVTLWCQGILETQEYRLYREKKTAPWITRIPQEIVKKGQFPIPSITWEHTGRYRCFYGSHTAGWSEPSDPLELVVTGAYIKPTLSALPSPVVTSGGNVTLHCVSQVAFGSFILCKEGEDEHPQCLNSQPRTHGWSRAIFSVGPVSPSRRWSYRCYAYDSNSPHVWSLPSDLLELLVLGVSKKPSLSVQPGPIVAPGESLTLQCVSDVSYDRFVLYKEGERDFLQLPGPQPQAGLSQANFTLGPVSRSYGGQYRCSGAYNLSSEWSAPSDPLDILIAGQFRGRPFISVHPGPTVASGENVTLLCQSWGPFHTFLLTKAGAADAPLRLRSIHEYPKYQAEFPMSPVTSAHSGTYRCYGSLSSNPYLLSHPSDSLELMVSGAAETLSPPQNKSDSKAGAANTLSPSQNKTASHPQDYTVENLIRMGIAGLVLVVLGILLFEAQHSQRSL
T6 sequence (A6NI73 42-299): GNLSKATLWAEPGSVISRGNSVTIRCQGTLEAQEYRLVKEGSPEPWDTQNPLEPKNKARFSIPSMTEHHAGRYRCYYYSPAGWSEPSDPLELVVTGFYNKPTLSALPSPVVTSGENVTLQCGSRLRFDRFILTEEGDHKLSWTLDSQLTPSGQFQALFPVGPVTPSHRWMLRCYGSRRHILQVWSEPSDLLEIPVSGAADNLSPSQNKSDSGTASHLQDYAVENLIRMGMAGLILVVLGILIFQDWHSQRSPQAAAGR
T1 sequence (Q8N423 22-597): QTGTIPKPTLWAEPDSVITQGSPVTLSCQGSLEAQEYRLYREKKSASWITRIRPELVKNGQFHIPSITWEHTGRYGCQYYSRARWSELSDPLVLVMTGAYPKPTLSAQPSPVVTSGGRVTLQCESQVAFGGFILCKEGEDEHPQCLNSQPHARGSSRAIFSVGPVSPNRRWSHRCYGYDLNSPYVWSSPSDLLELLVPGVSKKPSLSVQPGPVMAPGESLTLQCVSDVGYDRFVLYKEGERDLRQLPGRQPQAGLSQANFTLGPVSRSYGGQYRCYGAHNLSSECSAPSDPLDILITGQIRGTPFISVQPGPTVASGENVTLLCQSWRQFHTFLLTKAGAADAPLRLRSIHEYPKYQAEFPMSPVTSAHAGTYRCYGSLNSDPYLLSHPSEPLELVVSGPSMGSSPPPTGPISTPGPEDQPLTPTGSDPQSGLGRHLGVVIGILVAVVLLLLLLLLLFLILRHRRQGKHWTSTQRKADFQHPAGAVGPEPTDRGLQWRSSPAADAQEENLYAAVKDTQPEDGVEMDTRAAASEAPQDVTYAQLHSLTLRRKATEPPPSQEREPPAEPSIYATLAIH
T9 sequence (Q8N149 24-483): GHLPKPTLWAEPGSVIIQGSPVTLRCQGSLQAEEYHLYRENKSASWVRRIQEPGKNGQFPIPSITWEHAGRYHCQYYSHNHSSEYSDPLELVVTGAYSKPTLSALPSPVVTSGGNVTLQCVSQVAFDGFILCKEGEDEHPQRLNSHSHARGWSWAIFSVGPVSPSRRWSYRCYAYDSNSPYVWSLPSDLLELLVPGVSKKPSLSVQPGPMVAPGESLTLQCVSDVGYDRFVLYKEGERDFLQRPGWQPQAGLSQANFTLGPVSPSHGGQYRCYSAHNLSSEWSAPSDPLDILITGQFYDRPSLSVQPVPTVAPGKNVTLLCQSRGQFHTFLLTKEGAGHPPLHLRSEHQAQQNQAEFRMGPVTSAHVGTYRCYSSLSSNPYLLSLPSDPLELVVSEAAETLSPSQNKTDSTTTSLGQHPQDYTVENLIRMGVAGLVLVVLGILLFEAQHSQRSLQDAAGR
T10 sequence (Q8NHL6 24-650): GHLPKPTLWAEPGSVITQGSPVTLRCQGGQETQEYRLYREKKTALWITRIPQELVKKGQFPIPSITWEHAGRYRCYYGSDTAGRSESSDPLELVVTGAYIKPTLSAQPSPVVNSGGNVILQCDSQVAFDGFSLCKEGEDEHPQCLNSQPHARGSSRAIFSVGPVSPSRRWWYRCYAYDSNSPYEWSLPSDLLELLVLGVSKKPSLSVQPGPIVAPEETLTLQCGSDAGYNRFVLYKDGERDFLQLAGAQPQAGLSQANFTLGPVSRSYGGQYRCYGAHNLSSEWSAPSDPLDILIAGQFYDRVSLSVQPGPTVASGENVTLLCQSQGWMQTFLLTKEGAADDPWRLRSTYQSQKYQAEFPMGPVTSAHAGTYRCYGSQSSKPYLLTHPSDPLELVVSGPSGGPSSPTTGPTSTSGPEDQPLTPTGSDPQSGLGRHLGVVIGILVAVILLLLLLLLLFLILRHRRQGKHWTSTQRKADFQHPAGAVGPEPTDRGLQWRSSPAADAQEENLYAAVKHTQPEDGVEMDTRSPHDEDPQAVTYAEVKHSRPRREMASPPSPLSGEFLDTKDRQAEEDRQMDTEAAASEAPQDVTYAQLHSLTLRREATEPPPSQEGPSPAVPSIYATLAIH
T11 sequence (Q8NHL6 24-458 limits assumed): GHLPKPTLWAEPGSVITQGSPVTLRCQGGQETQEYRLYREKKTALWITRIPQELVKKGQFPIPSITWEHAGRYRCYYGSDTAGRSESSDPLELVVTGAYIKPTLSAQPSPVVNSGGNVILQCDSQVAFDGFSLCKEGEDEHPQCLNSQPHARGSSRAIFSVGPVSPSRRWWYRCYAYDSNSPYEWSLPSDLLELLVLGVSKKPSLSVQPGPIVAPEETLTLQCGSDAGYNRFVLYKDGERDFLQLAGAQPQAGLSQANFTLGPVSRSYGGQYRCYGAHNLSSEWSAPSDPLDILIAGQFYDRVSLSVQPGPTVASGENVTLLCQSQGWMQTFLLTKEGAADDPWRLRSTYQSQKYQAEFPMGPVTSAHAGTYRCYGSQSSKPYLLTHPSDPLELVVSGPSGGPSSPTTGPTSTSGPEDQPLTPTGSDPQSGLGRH
T2 sequence (Q6PI73 24-481): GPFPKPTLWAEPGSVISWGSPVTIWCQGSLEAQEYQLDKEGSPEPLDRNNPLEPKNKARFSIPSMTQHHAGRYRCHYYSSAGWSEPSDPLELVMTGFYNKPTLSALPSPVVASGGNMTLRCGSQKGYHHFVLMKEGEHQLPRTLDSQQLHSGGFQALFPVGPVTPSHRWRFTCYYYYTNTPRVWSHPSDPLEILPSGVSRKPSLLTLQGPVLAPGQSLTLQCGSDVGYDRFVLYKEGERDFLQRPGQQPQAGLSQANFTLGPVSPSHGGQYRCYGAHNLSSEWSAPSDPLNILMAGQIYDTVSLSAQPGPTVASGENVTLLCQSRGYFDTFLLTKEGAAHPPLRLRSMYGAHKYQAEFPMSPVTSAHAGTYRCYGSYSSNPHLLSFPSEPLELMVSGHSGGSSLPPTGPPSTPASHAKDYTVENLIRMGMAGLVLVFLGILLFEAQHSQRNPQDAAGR
T3 sequence (O75023 24-590): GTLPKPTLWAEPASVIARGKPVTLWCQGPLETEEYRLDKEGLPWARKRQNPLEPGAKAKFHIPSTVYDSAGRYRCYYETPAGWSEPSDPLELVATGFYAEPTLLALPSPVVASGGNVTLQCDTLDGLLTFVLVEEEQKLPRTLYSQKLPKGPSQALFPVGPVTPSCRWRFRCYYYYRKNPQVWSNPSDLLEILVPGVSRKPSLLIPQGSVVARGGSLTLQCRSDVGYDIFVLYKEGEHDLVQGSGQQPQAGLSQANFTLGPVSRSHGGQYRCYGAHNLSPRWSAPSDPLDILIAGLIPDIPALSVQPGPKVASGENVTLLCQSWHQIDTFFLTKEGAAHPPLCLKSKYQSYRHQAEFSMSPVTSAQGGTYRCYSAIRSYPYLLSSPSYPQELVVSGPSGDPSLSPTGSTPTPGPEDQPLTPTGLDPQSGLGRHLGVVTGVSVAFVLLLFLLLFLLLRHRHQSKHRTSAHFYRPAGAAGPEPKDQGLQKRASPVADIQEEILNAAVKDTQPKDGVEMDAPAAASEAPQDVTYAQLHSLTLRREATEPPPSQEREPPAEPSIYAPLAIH
T5 sequence (O75022 24-631): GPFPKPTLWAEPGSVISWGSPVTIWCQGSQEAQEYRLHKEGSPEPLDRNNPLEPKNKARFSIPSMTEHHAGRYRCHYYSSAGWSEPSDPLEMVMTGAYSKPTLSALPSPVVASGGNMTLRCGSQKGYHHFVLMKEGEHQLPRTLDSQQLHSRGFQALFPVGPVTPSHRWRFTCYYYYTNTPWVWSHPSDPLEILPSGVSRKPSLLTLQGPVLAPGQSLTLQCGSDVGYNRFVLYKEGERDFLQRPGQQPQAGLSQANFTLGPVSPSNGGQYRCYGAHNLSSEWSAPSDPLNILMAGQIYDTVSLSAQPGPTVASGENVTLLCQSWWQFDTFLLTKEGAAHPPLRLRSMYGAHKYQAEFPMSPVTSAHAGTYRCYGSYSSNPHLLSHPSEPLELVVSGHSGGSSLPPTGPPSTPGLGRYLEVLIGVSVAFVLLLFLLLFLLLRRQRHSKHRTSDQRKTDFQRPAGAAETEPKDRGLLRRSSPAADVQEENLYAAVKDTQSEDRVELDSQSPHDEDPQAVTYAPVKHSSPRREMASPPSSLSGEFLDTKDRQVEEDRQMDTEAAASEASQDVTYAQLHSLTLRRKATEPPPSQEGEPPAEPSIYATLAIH

B1: B21H1-12 (antibody, human IgG1, kappa)
heavy: not shown
light: DIQMTQSPSSLSASVGDRVTITCQASGNIYSFLAWYQQKPGKVPKLLIYTASNLETGVPSRFSGSGSGTDYTLTISSLQSEDAATYYCLGGLYSSDVSYAFGGGTKVVIKRTVAAPSVFIFPPSDEQLKSGTASVVCLLNNFYPREAKVQWKVDNALQSGNSQESVTEQDSKDSTYSLSSTLTLSKADYEKHKVYACEVTHQGLSSPVTKSFNRGEC
notes: humanized IgG1/kappa, VH1+VL2
The EC50 is the concentration at which the effect is half-maximal. On to B1, for which the MFI with human LILRB2 on cells [1] turned out to be 6210 MFI; in experiment [2], 151 MFI; in experiment [3], 87.8 MFI; in experiment [4] it was 112 MFI; in experiment [5], 82.2 MFI; in [6], 72.8 MFI. Further, the MFI in [7] was 27.3 MFI; in experiment [8], 276 MFI; in experiment [9], 26.6 MFI; with human LILRB1 on cells [10], 963 MFI. Further, the binding result in experiment [2], in experiment [3], in [4], in [5], in [6] and in [7] was “no binding (tested: 1 µg/mL)” throughout. Moreover, the binding result in experiment [8] and in experiment [9] was “no binding (tested: 1 µg/mL)” in each case. Also, the EC50 was 6.14 ng/mL in experiment [11], 17.4 ng/mL in experiment [12], 41.7 ng/mL with human LILRB1 on cells [13] and 1.02 ng/mL with human LILRB2 on cells [14].

B2: B21H1-42 (antibody, human IgG1, kappa)
heavy: not shown
light: B1 light
notes: humanized IgG1/kappa, VH4+VL2
As for B2, the MFI with human LILRB2 on cells [1] is 5630 MFI; in [2] it was 147 MFI; in [3], 92.8 MFI; in [4] it was 134 MFI; in experiment [5] it was 97 MFI; in [6], 74.6 MFI. The MFI in experiment [7] was found to be 30.9 MFI; in experiment [8], 345 MFI; in [9], 27.1 MFI; in the experiment with human LILRB1 on cells [10] it was 1160 MFI. The binding result in [2], in experiment [3], in experiment [4], in experiment [5], in experiment [6] and in experiment [7] was “no binding (tested: 1 µg/mL)” in each case. In addition, the binding result in experiment [8] and in experiment [9] was “no binding (tested: 1 µg/mL)” each time. In addition, the EC50 was 9.19 ng/mL in [11], 28.4 ng/mL in [12] and 1.25 ng/mL with human LILRB2 on cells [14].

B3: B21H1-15 (antibody, human IgG1, kappa)
heavy: not shown
light: DIQMTQTPSTVEASVGGTVTITCQASGNIYSFLAWYQQKPGQPPKLLIYTASNLETGVPSRFSGSGSGTEYTLTISGLQSDDAATYYCLGGLYSSDVSYAFGGGTEVVVKRTVAAPSVFIFPPSDEQLKSGTASVVCLLNNFYPREAKVQWKVDNALQSGNSQESVTEQDSKDSTYSLSSTLTLSKADYEKHKVYACEVTHQGLSSPVTKSFNRGEC
notes: humanized IgG1/kappa, VH1+VL5
On to B3, for which the MFI in the experiment with human LILRB2 on cells [1] is 5700 MFI; in [2], 147 MFI; in experiment [3], 93.8 MFI; in experiment [4], 136 MFI; in experiment [5], 98.7 MFI; in experiment [6], 77.8 MFI. Also, the MFI in experiment [7] is 29.9 MFI; in experiment [8], 290 MFI; in [9], 28.9 MFI; with human LILRB1 on cells [10] it was 1140 MFI. Also, the binding result in [2], in experiment [3], in experiment [4], in experiment [5], in [6] and in [7] was “no binding (tested: 1 µg/mL)” each time. The binding result in experiment [8] and in experiment [9] was “no binding (tested: 1 µg/mL)” throughout. The values for the EC50 (in experiment [11]; in experiment [12]; with human LILRB2 on cells [14]) were 5.63 ng/mL, 21.6 ng/mL and 0.96 ng/mL, respectively.
